Experimental data as given in patent publication US20220175895A1 (ACADEMIA SINICA, published 2022).

Key:
[1] = target: Flag-VPS34 previously ubiquitinated in vitro by UBE3C, Q8NEB9
endogenous VPS34 = target: T1, endogenous VPS34 (UniProt Q8NEB9 1-887); test: co-immunoprecipitation from 293T cells (FIG. 2I)
T1 construct: also called vacuolar protein sorting 34; PI3 Kinase Class III

Rubicon = target: T2, Rubicon (UniProt Q92622 1-972, limits assumed); test: immunoprecipitation in 293T cells transfected with Flag-TRABID, fed or starved 2 h (FIG. 2R)
T2 sequence (looked up): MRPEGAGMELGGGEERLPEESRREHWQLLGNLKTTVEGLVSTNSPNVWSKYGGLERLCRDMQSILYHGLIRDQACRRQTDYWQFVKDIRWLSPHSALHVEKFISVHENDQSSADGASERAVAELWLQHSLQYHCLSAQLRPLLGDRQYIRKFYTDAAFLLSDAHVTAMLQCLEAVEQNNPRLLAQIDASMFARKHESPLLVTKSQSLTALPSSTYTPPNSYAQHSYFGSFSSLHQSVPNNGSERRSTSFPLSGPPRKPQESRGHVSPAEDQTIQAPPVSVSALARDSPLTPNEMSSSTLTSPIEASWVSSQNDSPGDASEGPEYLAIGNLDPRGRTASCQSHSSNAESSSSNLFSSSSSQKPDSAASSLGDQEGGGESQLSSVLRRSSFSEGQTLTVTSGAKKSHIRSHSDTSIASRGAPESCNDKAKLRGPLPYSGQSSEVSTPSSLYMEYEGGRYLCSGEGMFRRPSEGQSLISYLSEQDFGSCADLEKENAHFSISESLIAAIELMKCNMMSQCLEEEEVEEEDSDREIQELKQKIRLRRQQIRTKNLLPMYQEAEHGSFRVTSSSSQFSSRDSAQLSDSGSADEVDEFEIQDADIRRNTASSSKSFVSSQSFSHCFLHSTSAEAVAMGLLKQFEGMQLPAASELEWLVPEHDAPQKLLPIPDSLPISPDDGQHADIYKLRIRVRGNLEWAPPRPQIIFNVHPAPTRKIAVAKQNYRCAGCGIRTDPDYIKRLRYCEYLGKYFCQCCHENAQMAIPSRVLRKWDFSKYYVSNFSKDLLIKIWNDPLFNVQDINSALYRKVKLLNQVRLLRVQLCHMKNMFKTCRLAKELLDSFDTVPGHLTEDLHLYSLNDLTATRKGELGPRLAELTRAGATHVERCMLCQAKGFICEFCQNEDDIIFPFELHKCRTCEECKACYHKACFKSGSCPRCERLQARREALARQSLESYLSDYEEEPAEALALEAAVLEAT

Sequence of Flag-VPS34 previously ubiquitinated in vitro by UBE3C, Q8NEB9 (Q8NEB9 whole entry, looked up): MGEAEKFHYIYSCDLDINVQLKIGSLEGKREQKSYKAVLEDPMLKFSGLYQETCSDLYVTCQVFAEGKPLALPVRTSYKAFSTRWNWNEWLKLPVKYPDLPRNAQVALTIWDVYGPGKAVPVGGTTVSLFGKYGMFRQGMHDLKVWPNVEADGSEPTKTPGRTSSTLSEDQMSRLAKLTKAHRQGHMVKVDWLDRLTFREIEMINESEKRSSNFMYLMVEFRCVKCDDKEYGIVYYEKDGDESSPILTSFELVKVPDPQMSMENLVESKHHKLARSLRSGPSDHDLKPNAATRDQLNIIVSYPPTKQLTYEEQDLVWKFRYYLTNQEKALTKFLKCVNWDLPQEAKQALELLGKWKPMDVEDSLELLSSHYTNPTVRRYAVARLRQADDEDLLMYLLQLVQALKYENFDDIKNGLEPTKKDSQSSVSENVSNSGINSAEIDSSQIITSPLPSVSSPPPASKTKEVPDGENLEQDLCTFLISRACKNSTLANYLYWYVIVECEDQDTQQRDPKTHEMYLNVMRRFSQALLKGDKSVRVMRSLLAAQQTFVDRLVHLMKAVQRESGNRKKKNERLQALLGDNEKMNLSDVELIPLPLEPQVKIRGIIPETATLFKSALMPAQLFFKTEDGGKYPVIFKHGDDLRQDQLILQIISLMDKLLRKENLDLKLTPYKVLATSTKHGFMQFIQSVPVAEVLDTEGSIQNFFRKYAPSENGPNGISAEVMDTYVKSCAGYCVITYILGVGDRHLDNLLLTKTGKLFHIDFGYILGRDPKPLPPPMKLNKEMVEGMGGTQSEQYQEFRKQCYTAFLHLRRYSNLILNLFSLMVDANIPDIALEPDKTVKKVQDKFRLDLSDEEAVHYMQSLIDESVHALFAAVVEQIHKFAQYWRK
Sequence of Flag-VPS34, Q8NEB9 (Q8NEB9 whole entry, looked up): as above
T1 sequence (Q8NEB9 whole entry): as the sequence (Q8NEB9 whole entry, looked up) above

B1: HA-UBE3C (protein)
chain: MFSFEGDFKTRPKVSLGGASRKEEKASLLHRTQEERRKREEERRRLKNAIIIQSFIRGYRDRKQQYSIQRSAFDRCATLSQSGGAFPIANGPNLTLLVRQLLFFYKQNEDSKRLIWLYQNLIKHSSLFVKQLDGSERLTCLFQIKRLMSLCCRLLQNCNDDSLNVALPMRMLEVFSSENTYLPVLQDASYVVSVIEQILHYMIHNGYYRSLYLLINSKLPSSIEYSDLSRVPIAKILLENVLKPLHFTYNSCPEGARQQVFTAFTEEFLAAPFTDQIFHFIIPALADAQTVFPYEPFLNALLLIESRCSRKSGGAPWLFYFVLTVGENYLGALSEEGLLVYLRVLQTFLSQLPVSPASASCHDSASDSEEESEEADKPSSPEDGRLSVSYITEECLKKLDTKQQTNTLLNLVWRDSASEEVFTTMASVCHTLMVQHRMMVPKVRLLYSLAFNARFLRHLWFLISSMSTRMITGSMVPLLQVISRGSPMSFEDSSRIIPLFYLFSSLFSHSLISIHDNEFFGDPIEVVGQRQSSMMPFTLEELIMLSRCLRDACLGIIKLAYPETKPEVREEYITAFQSIGVTTSSEMQQCIQMEQKRWIQLFKVITNLVKMLKSRDTRRNFCPPNHWLSEQEDIKADKVTQLYVPASRHVWRFRRMGRIGPLQSTLDVGLESPPLSVSEERQLAVLTELPFVVPFEERVKIFQRLIYADKQEVQGDGPFLDGINVTIRRNYIYEDAYDKLSPENEPDLKKRIRVHLLNAHGLDEAGIDGGGIFREFLNELLKSGFNPNQGFFKTTNEGLLYPNPAAQMLVGDSFARHYYFLGRMLGKALYENMLVELPFAGFFLSKLLGTSADVDIHHLASLDPEVYKNLLFLKSYEDDVEELGLNFTVVNNDLGEAQVVELKFGGKDIPVTSANRIAYIHLVADYRLNRQIRQHCLAFRQGLANVVSLEWLRMFDQQEIQVLISGAQVPISLEDLKSFTNYSGGYSADHPVIKVFWRVVEGFTDEEKRKLLKFVTSCSRPPLLGFKELYPAFCIHNGGSDLERLPTASTCMNLLKLPEFYDETLLRSKLLYAIECAAGFELS
in vitro ubiquitination assay, Western blot of polyubiquitin chain on VPS34 (FIG. 3I) (Flag-VPS34, Q8NEB9): baculovirally purified UBE3C could assemble polyubiquitin chain on VPS34 purified from 293T cells

B2: purified TRABID (Boston Biochem; E-560) (protein)
chain: MSERGIKWACEYCTYENWPSAIKCTMCRAQRPSGTIITEDPFKSGSSDVGRDWDPSSTEGGSSPLICPDSSARPRVKSSYSMENANKWSCHMCTYLNWPRAIRCTQCLSQRRTRSPTESPQSSGSGSRPVAFSVDPCEEYNDRNKLNTRTQHWTCSVCTYENWAKAKRCVVCDHPRPNNIEAIELAETEEASSIINEQDRARWRGSCSSGNSQRRSPPATKRDSEVKMDFQRIELAGAVGSKEELEVDFKKLKQIKNRMKKTDWLFLNACVGVVEGDLAAIEAYKSSGGDIARQLTADEVRLLNRPSAFDVGYTLVHLAIRFQRQDMLAILLTEVSQQAAKCIPAMVCPELTEQIRREIAASLHQRKGDFACYFLTDLVTFTLPADIEDLPPTVQEKLFDEVLDRDVQKELEEESPIINWSLELATRLDSRLYALWNRTAGDCLLDSVLQATWGIYDKDSVLRKALHDSLHDCSHWFYTRWKDWESWYSQSFGLHFSLREEQWQEDWAFILSLASQPGASLEQTHIFVLAHILRRPIIVYGVKYYKSFRGETLGYTRFQGVYLPLLWEQSFCWKSPIALGYTRGHFSALVAMENDGYGNRGAGANLNTDDDVTITFLPLVDSERKLLHVHFLSAQELGNEEQQEKLLREWLDCCVTEGGVLVAMQKSSRRRNHPLVTQMVEKWLDRYRQIRPCTSLSDGEEDEDDEDE
in vitro deubiquitination assay, Western blot of total and K48 ubiquitin linkages on VPS34 (FIG. 2K) [1]: purified TRABID was capable of reducing the total and K48 ubiquitin linkages from this VPS34 in vitro

B3: endogenous TRABID (enzyme)
chain: B2 chain
binding result (endogenous VPS34): binds

B4: Flag-TRABID (enzyme)
chain: B2 chain
notes: not shown: Flag tag
binding result (Rubicon): no binding
